Values quoted from earlier work as cited in article PMC4775371.

Target: H1.0 (UniProt P07305)
Chain of UniProt P07305 (P07305 2-194): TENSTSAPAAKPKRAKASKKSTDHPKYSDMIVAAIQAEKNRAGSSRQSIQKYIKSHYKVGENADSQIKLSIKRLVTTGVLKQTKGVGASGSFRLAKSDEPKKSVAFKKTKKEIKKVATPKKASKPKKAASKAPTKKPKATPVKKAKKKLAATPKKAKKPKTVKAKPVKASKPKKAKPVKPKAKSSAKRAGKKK

Kd: 32 nM
Substance: FACT (from UniProt Q9Y5B9)
